Results: the supplement of paper PMC9112550, “Optimization of the antimicrobial peptide Bac7 by deep mutational scanning” (BMC Biology, 2022)

Tested on: Escherichia coli TOP10
Test: shrunken log2 fold change of peptide-encoding DNA abundance (4.5 h post-induction vs induction); higher = less antimicrobial activity (less host growth inhibition)
Conditions: time post-induction: 4.5 h; library: site-saturation at positions 5, 18, 19, 20
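Further: peptides expressed intracellularly from a pBAD plasmid library in pooled LB shake-flask culture, induced with 0.3% L-arabinose, DNA abundance read by NGS, three biological replicates, DESeq2 with apeglm shrinkage.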

| Sequence | shrunken log2 fold change |
| --- | --- |
| RRIRDRPPRLPRPRPRPTMKPRP | 0.192 |
| RRIRNRPPRLPRPRPRPLESPRP | -0.0331 |
| RRIRKRPPRLPRPRPRPNKLPRP | -0.0293 |
| RRIRARPPRLPRPRPRPIFRPRP | 0.205 |
| RRIRKRPPRLPRPRPRPRLKPRP | 0.365 |
| RRIRNRPPRLPRPRPRPVHFPRP | 0.0937 |
| RRIRQRPPRLPRPRPRPKDVPRP | 0.00879 |
| RRIRMRPPRLPRPRPRPRFLPRP | -0.00457 |
| RRIRMRPPRLPRPRPRPATDPRP | 0.843 |
| RRIRGRPPRLPRPRPRPPTAPRP | 1.01 |
| RRIRTRPPRLPRPRPRPYACPRP | -0.216 |
| RRIRYRPPRLPRPRPRPAFVPRP | -0.178 |
| RRIRFRPPRLPRPRPRPEHYPRP | -0.101 |
| RRIRERPPRLPRPRPRPRMWPRP | 0.302 |
| RRIRPRPPRLPRPRPRPICVPRP | -0.215 |
| RRIRKRPPRLPRPRPRPPHVPRP | 0.498 |
| RRIRDRPPRLPRPRPRPPGIPRP | 0.233 |
| RRIRCRPPRLPRPRPRPGKIPRP | -0.399 |
| RRIRPRPPRLPRPRPRPPLLPRP | 0.081 |
| RRIRSRPPRLPRPRPRPMAKPRP | 0.206 |
| RRIRQRPPRLPRPRPRPNCPPRP | 0.0556 |
| RRIRIRPPRLPRPRPRPCNAPRP | -0.0751 |
| RRIRERPPRLPRPRPRPIEEPRP | -0.0104 |
| RRIRWRPPRLPRPRPRPWWPPRP | 0.19 |
| RRIRCRPPRLPRPRPRPVPPPRP | 0.474 |

| Sequence | shrunken log2 fold change |
| --- | --- |
| RRIRGRPPRLPRPRPRPPRPPRP | 1.08 |
| RRIRWRPPRLPRPRPRPYTSPRP | -0.0806 |
| RRIRSRPPRLPRPRPRPQFAPRP | 0.105 |
| RRIRQRPPRLPRPRPRPDALPRP | -0.0392 |
| RRIRARPPRLPRPRPRPFRIPRP | -0.169 |
| RRIRHRPPRLPRPRPRPDQLPRP | -0.51 |
| RRIRTRPPRLPRPRPRPAWTPRP | 0.101 |
| RRIRDRPPRLPRPRPRPHLCPRP | -0.0584 |
| RRIRFRPPRLPRPRPRPERTPRP | -0.0923 |
| RRIRNRPPRLPRPRPRPSEYPRP | -0.386 |
| RRIRPRPPRLPRPRPRPMPLPRP | -0.0538 |
| RRIRKRPPRLPRPRPRPEMAPRP | 1.73 |
| RRIRERPPRLPRPRPRPAQFPRP | 0.383 |
| RRIRHRPPRLPRPRPRPCMWPRP | -0.193 |
| RRIRARPPRLPRPRPRPCKFPRP | -0.138 |
| RRIRQRPPRLPRPRPRPGGRPRP | 0.456 |
| RRIRMRPPRLPRPRPRPKDNPRP | 1.43 |
| RRIRVRPPRLPRPRPRPIMMPRP | -0.0138 |
| RRIRERPPRLPRPRPRPASVPRP | -0.0789 |
| RRIRPRPPRLPRPRPRPEPQPRP | 0.268 |
| RRIRKRPPRLPRPRPRPVFPPRP | 0.0527 |
| RRIRARPPRLPRPRPRPTSEPRP | 0.751 |
| RRIRWRPPRLPRPRPRPNTCPRP | -0.777 |
| RRIRDRPPRLPRPRPRPHPMPRP | 0.0468 |
| RRIRSRPPRLPRPRPRPRKTPRP | 0.0973 |

| Sequence | shrunken log2 fold change |
| --- | --- |
| RRIRNRPPRLPRPRPRPMTVPRP | -0.12 |
| RRIRPRPPRLPRPRPRPCCNPRP | -0.301 |
| RRIRQRPPRLPRPRPRPESGPRP | 0.0279 |
| RRIRPRPPRLPRPRPRPAKGPRP | 0.403 |
| RRIRIRPPRLPRPRPRPLACPRP | -0.398 |
| RRIRYRPPRLPRPRPRPPFVPRP | -0.304 |
| RRIRVRPPRLPRPRPRPDLRPRP | -0.0613 |
| RRIRWRPPRLPRPRPRPRLVPRP | 0.476 |
| RRIRIRPPRLPRPRPRPCTEPRP | -0.0706 |
| RRIRDRPPRLPRPRPRPPACPRP | 0.0727 |
| RRIRSRPPRLPRPRPRPHSSPRP | 0.171 |
| RRIRNRPPRLPRPRPRPRANPRP | 0.0572 |
| RRIRKRPPRLPRPRPRPDYDPRP | 0.143 |
| RRIRRRPPRLPRPRPRPLWQPRP | 0.318 |
| RRIRGRPPRLPRPRPRPGHPPRP | 0.444 |
| RRIRERPPRLPRPRPRPDLCPRP | -0.00931 |
| RRIRERPPRLPRPRPRPEGLPRP | -0.00749 |
| RRIRPRPPRLPRPRPRPWITPRP | -0.469 |
| RRIRGRPPRLPRPRPRPWGFPRP | -0.126 |
| RRIRYRPPRLPRPRPRPHIEPRP | -1.47 |
| RRIRQRPPRLPRPRPRPGTVPRP | -0.00591 |
| RRIRDRPPRLPRPRPRPLKHPRP | -0.927 |
| RRIRCRPPRLPRPRPRPDVTPRP | 0.0172 |
| RRIRGRPPRLPRPRPRPWHRPRP | 0.0496 |
| RRIRDRPPRLPRPRPRPAWPPRP | 0.815 |

| Sequence | shrunken log2 fold change |
| --- | --- |
| RRIRLRPPRLPRPRPRPVKTPRP | -0.0565 |
| RRIRVRPPRLPRPRPRPCTEPRP | -0.167 |
| RRIRYRPPRLPRPRPRPAFKPRP | -0.145 |
| RRIRHRPPRLPRPRPRPVMNPRP | -0.0175 |
| RRIRGRPPRLPRPRPRPRTNPRP | 0.588 |
| RRIRVRPPRLPRPRPRPNVQPRP | -0.0734 |
| RRIRRRPPRLPRPRPRPAEKPRP | 0.225 |
| RRIRARPPRLPRPRPRPGYIPRP | -0.383 |
| RRIRTRPPRLPRPRPRPTLHPRP | -0.126 |
| RRIRKRPPRLPRPRPRPRWRPRP | 0.658 |
| RRIRPRPPRLPRPRPRPDKVPRP | -0.249 |
| RRIRRRPPRLPRPRPRPLPSPRP | 0.752 |
| RRIRHRPPRLPRPRPRPKPLPRP | 0.127 |
| RRIRFRPPRLPRPRPRPDTDPRP | 0.479 |
| RRIRMRPPRLPRPRPRPCKKPRP | 0.106 |
| RRIRLRPPRLPRPRPRPVWQPRP | -0.096 |
| RRIRMRPPRLPRPRPRPCNIPRP | 0.0653 |
| RRIRKRPPRLPRPRPRPLGGPRP | 0.288 |
| RRIRVRPPRLPRPRPRPWWAPRP | -0.0894 |
| RRIRWRPPRLPRPRPRPIWPPRP | 0.684 |
| RRIRWRPPRLPRPRPRPYCHPRP | -0.437 |
| RRIRPRPPRLPRPRPRPAEDPRP | -0.114 |
| RRIRPRPPRLPRPRPRPCTHPRP | -0.0646 |
| RRIRRRPPRLPRPRPRPINGPRP | -0.0719 |
| RRIRYRPPRLPRPRPRPNENPRP | -0.744 |

| Sequence | shrunken log2 fold change |
| --- | --- |
| RRIRPRPPRLPRPRPRPMQSPRP | 0.524 |
| RRIRFRPPRLPRPRPRPSCPPRP | -0.72 |
| RRIRLRPPRLPRPRPRPHWCPRP | -0.0751 |
| RRIRQRPPRLPRPRPRPAGRPRP | 0.978 |
| RRIRSRPPRLPRPRPRPHECPRP | -0.0285 |
| RRIRYRPPRLPRPRPRPASDPRP | -0.348 |
| RRIRWRPPRLPRPRPRPMFVPRP | -0.51 |
| RRIRSRPPRLPRPRPRPWQNPRP | -0.194 |
| RRIRNRPPRLPRPRPRPYCHPRP | -0.72 |
| RRIRDRPPRLPRPRPRPSSHPRP | -0.124 |
| RRIRKRPPRLPRPRPRPGVPPRP | 0.364 |
| RRIRGRPPRLPRPRPRPPDCPRP | 1.28 |
| RRIRERPPRLPRPRPRPPKNPRP | 0.284 |
| RRIRKRPPRLPRPRPRPLHLPRP | -0.198 |
| RRIRQRPPRLPRPRPRPALLPRP | -0.0269 |
| RRIRYRPPRLPRPRPRPNMIPRP | -1.34 |
| RRIRKRPPRLPRPRPRPWYTPRP | -0.177 |
| RRIRLRPPRLPRPRPRPRKRPRP | 0.314 |
| RRIRDRPPRLPRPRPRPVSEPRP | 0.514 |
| RRIRMRPPRLPRPRPRPWNNPRP | -0.964 |
| RRIRHRPPRLPRPRPRPHRCPRP | 0.0171 |
| RRIRQRPPRLPRPRPRPASFPRP | 0.0572 |
| RRIRPRPPRLPRPRPRPPTNPRP | 0.222 |
| RRIRGRPPRLPRPRPRPSWHPRP | 0.0802 |
| RRIRERPPRLPRPRPRPATFPRP | -0.177 |

| Sequence | shrunken log2 fold change |
| --- | --- |
| RRIRSRPPRLPRPRPRPRNWPRP | 0.318 |
| RRIRYRPPRLPRPRPRPMEDPRP | -0.0944 |
| RRIRPRPPRLPRPRPRPHMCPRP | -0.082 |
| RRIRLRPPRLPRPRPRPGMKPRP | -0.0618 |
| RRIRQRPPRLPRPRPRPVVRPRP | 0.169 |
| RRIRSRPPRLPRPRPRPAHHPRP | 0.048 |
| RRIRSRPPRLPRPRPRPKGYPRP | 0.00982 |
| RRIRPRPPRLPRPRPRPCPAPRP | -0.0349 |
| RRIRCRPPRLPRPRPRPDHHPRP | -0.246 |
| RRIRSRPPRLPRPRPRPAMAPRP | 1.64 |
| RRIRERPPRLPRPRPRPWMKPRP | -0.353 |
| RRIRMRPPRLPRPRPRPARQPRP | 0.825 |
| RRIRFRPPRLPRPRPRPMAWPRP | -0.0344 |
| RRIRYRPPRLPRPRPRPHAEPRP | -0.144 |
| RRIRARPPRLPRPRPRPSIPPRP | -0.349 |
| RRIRVRPPRLPRPRPRPIPDPRP | -0.0692 |
| RRIRPRPPRLPRPRPRPPPQPRP | 0.963 |
| RRIRYRPPRLPRPRPRPRTMPRP | -1.72 |
| RRIRQRPPRLPRPRPRPRITPRP | 1.06 |
| RRIRTRPPRLPRPRPRPYSRPRP | 0.0299 |
| RRIRGRPPRLPRPRPRPCHCPRP | -0.017 |
| RRIRTRPPRLPRPRPRPAQLPRP | -0.216 |
| RRIRIRPPRLPRPRPRPMKTPRP | -0.057 |
| RRIRWRPPRLPRPRPRPYNYPRP | -0.331 |
| RRIRHRPPRLPRPRPRPLKGPRP | 0.0721 |
